Results taken from patent publication US20090232804A1 (GLENMARK PHARMACEUTICALS S A, published 2009).

Experiments:
[1] = molecular target: T1, His tagged A1 domain of rat von Willebrand factor, expressed in E. coli (rat, UniProt Q62935 13-256); experiment: homologous competition with Eu-NMC-4 chimera on plate-coated rat His-A1, DELFIA, Cheng-Prusoff, n = 3
T1 construct: domain: A1 domain; also called His-A1 (rat); His-rA1; not shown: His tag from the pETDuet-1 vector

[2] = molecular target: T1, His tagged A1 domain of rat von …; experiment: calculated from koff, DELFIA kinetics on plate-coated His-A1, 37 °C
[3] = molecular target: T1, His tagged A1 domain of rat von …; experiment: DELFIA association kinetics, Eu-labelled antibody on plate-coated His-A1, 37 °C
[4] = molecular target: T1, His tagged A1 domain of rat von …; experiment: ratio of the kinetic constants (row printed as 'kon/koff'), DELFIA, 37 °C
[5] = molecular target: T1, His tagged A1 domain of rat von …; experiment: equilibrium binding (Scatchard), Eu-labelled antibody on direct-coated His-A1, DELFIA, 37 °C, n = 5
Procedure: Equilibrium binding assays are performed as follows. Eu-antibody is pre-diluted into Binding Buffer (e.g., Wash buffer containing 100 μg/ml IgG-free BSA and 0.1% sodium azide) and applied to wells (e.g., 10 μl/well) of a 96-well plate and the plates sealed with SEALPLATE film. The plates are shaken (e.g., Titer Plate Shaker speed setting of 4 for ≧15 sec or 60 sec at RT), placed into nalgene boxes containing wet paper towels, and incubated in the closed boxes for 2 hours at 37° C. For the measurement of free label, supernatant samples (4.0 μl) are transferred from the wells containing binding mixtures into a parallel set of wells containing DELFIA Enhancement Solution (100 μl/well). To assess bound antibody, the A1-coated wells with the remaining binding mixtures are washed five times with Wash Buffer, tapped dry onto paper towels and DELFIA Enhancement Solution (100 μl/well) added to the empty wells for the measurement of bound label. For assay calibration, DELFIA Enhancement Solution (100 μl/well) is added to unused wells and Europium Standard (1.0 μl/well) is added. The plates are shaken (e.g., Titer Plate Shaker speed setting of 5 for 10 minutes at room temperature), and time-resolved fluorescent (TRF) intensities are read using a Victor2 multi-label plate reader (Perkin-Elmer Wallac, Boston, Mass.). […]

Ki [1]: 0.297 nM
Dissociation half-life [2]: 69 min
kon [3]: 233000 M⁻¹ s⁻¹
Kd [4]: 0.7 nM
Kd [5]: 0.276 nM
B1: NMC-4-human Fc chimera (NMC-4 variable regions on human IgG1(dm) and human kappa constant regions) (antibody, V domains shown)
VH: QVQLKESGPGLVAPSQSLSITCTVSGFSLTDYGVDWVRQPPGKGLEWLGMIWGDGSTDYNSALKSRLSITKDNSKSQVFLKMNSLQTDDTARYYCVRDPADYGNYDYALDYWGQGTSVTVSS
VL: DIQMTQSPSSLSASLGDRVTISCSASQDINKYLNWYQQKPDGAVKLLIFYTSSLHSGVPSRFSGSGSGTDYSLTISNLEPEDIATYYCQQYEKLPWTFGGGTKLEVK
notes: Heavy constant region is human IgG1 with L235E, E318A, K320A, K332A (IgG1(dm)); also called NMC-4 chimera; NMC4 chimera
